From paper PMC7513463 (Nature, 2020)
Where two headings read alike, the source gives them in different places.

B1: PA0623 tube protein of pyocin R2 (natural protein, Pseudomonas aeruginosa PAO1, UniProt Q9I5S9 1-167, looked up)
chain: MIPQTLTNTNLFIDGVSFAGDVPSLTLPKLAVKTEQYRAGGMDAPVSIDMGLEAMEAKFSTNGARREALNFFGLADQSAFNGVFRGSFKGQKGASVPVVATLRGLLKEVDPGDWKAGEKAEFKYAVAVSYYKLEVDGREVYEIDPVNGVRAINGVDQLAGMRNDLGL
B2: PA0628 hub protein of pyocin R2 (natural protein, Pseudomonas aeruginosa PAO1, UniProt G3XCU8 1-329, looked up)
chain: MQPSFRIVADGTDVTQRLNDRLLKLTLLDKPGMESDSLTLRIDDRDGQVALPRRGAVLEVHLGYAGEPLMRMGRFTVDTLQWAGPPDCLTVTAKAGDMRGSGKTIRSGGWEGTTLAQVCRDVGARNGWRVECPLQVAIARVDQVNESDYHFVTRLARQYDCTAKLAEGMLMVLPRQSGQSATGRRIEPLVLGRADVGSFDVTFDDRSLMRTVKTRYQLPGSGEVKSVELKNPKAPATAMGEHVDRHLYTSRGEAEQAAKARLASFSRSSASVRLELPGRGDLFAERSLLLQGFKAGIDGEFLIDSVEHTYSSSGWTTVVQCNGGRGGKG
B3: PA0626 ripcord protein of pyocin R2 (natural protein, Pseudomonas aeruginosa PAO1, UniProt G3XD65 1-290, looked up)
chain: MAYLEQLQAGLRYLGRAGESGRKSLDKVVAPVNGAISEIRGAAAELENLPGVSPEMAARLQRAMRGIGQAQGKVNRVVSTYDRASRALLGIDERLDALKVQVNSAAQAVGKVAGDISPTLAGVLPSWLLAPSATPPSEAAASLPHLLVLQPLTANAQPFYFNLNTAAFDALQRNSAYNWSGQVRLGRRPALQSVGMGEESILLKGAVFPLRRQVGNQEKVVGLEQLEALRRLAERREPLILSSGYGEVQMGLWCLVRISENQSALLGNGAPRKQTFDLEFKRYGDDLPNR
B4: PA0615 collar protein of pyocin R2 (natural protein, Pseudomonas aeruginosa PAO1, UniProt G3XD82 1-171, looked up)
chain: MPEQAVTLEALYAAIEQVLRERLPEAQLIGFWPGVPENTPAVSLEIAELLPERDPGTGESALLCRLQARIMVPPGADRQAVSIACGIVRTLREQTWNLSLQPARFVRSAVDGSREELKSLRVWLVEWTQSLRLGDPEWAWEDQPPGSLMLGFDPQTGPGHEPDYFAPEALA
B5: PA0616 central spike protein of pyocin R2 (in the native particle) (natural protein)
chain: MSYVSAEHDRMLAAMILPCVVVAVDLAAARVRVRSGDWTSGWLRWHSLAAGKVRHWRAPSIGEQGVLLSPSGGVSMGTFIPGLYGDAGTAPDNSASSETWRFDDGASLSYDWAAHRYRVELPSGTVEVRVGASEVRVSDGAVSLKAPKISLEGPVEIAGTLTVSGDILGGGSIIDTAGNSNHHTH
B6: PA0616 central spike protein, full length, recombinant (natural protein)
chain: B5 chain
B7: PA0619 (Tri2) triplex protein of pyocin R2 (natural protein, Pseudomonas aeruginosa PAO1, UniProt G3XD92 1-177, looked up)
chain: MSSRLLPPNRSSLERSLGDVLPAELPVPLRELHDPARCEAALLPYLAWTRSVDRWDPDWSDEAKRNAVATSFVLHQRKGTLTALRQVVEPIGALSEVTEWWQRSPTGVPGTFEITVDVSDRGIDEGTVLELERLLDDVRPVSRHLTRLDLRITPVIRSRHGLAVTDGDTLEIFPWKQ
B8: PA0617 sheath initiator protein of pyocin R2 (natural protein, Pseudomonas aeruginosa PAO1, UniProt G3XD42 1-108, looked up)
chain: MIGMDRRSGLPLSGLAHLKQSVEDILTTPLGSRRMRPEYGSKLRRMVDMPVSEGWKSAVQAEVARSLGRWEPRIGLSAVRVVAVVDGRVDLLLSGVFEGENINMEVSA
B9: PA0618 (Tri1) triplex protein of pyocin R2 (natural protein, Pseudomonas aeruginosa PAO1, UniProt G3XCX5 1-295, looked up)
chain: MIIDLSQLPEPEVIENLDFETIYQELLGDFREAMAGEWTAEVESDPVLKLLQLAAYRELLLRARINDAARAVMLAYASGADLDQIGAGFNVQRLLIRPAQPEAVPPVEAQYESDKSLRNRIQLAFEQLSVAGPRNAYIAHALGADGRVADASATSPAPCEVLISVLGVEGNGQAPEAVLQAVRLALNAEDVRPVADRVTVRSAGIVPYQVKAQLYLFPGPEAELIRAAAEASLRDYISAQRRLGRDIRRSALFATLHVEGVQRVELQEPAADVVLDETQAAYCTGYAITLGGVDE
B10: PA0622 sheath protein of pyocin R2 (natural protein, Pseudomonas aeruginosa PAO1, UniProt G3XD39 1-386, looked up)
chain: MSFFHGVTVTNVDIGARTIALPASSVIGLCDVFTPGAQASAKPNVPVLLTSKKDAAAAFGIGSSIYLACEAIYNRAQAVIVAVGVETAETPEAQASAVIGGISAAGERTGLQALLDGKSRFNAQPRLLVAPGHSAQQAVATAMDGLAEKLRAIAILDGPNSTDEAAVAYAKNFGSKRLFMVDPGVQVWDSATNAARNAPASAYAAGLFAWTDAEYGFWSSPSNKEIKGVTGTSRPVEFLDGDETCRANLLNNANIATIIRDDGYRLWGNRTLSSDSKWAFVTRVRTMDLVMDAILAGHKWAVDRGITKTYVKDVTEGLRAFMRDLKNQGAVINFEVYADPDLNSASQLAQGKVYWNIRFTDVPPAENPNFRVEVTDQWLTEVLDVA

Assays:
cryo-EM structure [1] = target: the molecule itself; assay: cryo-EM structure
[2] = target: B2; assay: cryo-EM structure
[3] = target: B10; assay: cryo-EM structure
crystal structure = target: the molecule itself; assay: crystal structure
[4] = target: B9; assay: cryo-EM structure
[5] = target: B10; assay: cryo-EM structure; remark: listed apart in the source
[6] = target: B7; assay: cryo-EM structure
cryo-EM structure [7] = target: the molecule itself; assay: cryo-EM structure; remark: listed apart in the source

Question: Which “stoichiometry N” value (cryo-EM structure [1]) does the source give for B1 here?
Answer: 6

Question: For B2, which “stoichiometry N” value (cryo-EM structure [1]) is on record?
Answer: 3

Question: Does B3 bind [2]?
Answer: binds

Question: What about the “stoichiometry N” value (cryo-EM structure [1]) of the same binder?
Answer: 6

Question: For B4, which “stoichiometry N” value (cryo-EM structure [1]) is on record?
Answer: 6

Question: Does B4 bind [3]?
Answer: binds

Question: With B5 as the binder, how does the “stoichiometry N” value (cryo-EM structure [1]) read?
Answer: 3

Question: For B6, which “stoichiometry N” value (crystal structure) is on record?
Answer: 3

Question: Does B7 bind [4]?
Answer: binds

Question: Does B8 bind [5]?
Answer: binds

Question: For B9, which “stoichiometry N” value [6] is on record?
Answer: 2 PA0618 per PA0619

Question: And the “stoichiometry N” value (cryo-EM structure [1])?
Answer: 2

Question: Does B10 bind (cryo-EM structure [7])?
Answer: binds
